In US20100260748A1:

Biological target: T1, human FcRH5 (FcRH5c/IRTA2c, PRO52387), recombinant protein ('Hu antigen') (human) (UniProt Q96RD9)
T1 sequence: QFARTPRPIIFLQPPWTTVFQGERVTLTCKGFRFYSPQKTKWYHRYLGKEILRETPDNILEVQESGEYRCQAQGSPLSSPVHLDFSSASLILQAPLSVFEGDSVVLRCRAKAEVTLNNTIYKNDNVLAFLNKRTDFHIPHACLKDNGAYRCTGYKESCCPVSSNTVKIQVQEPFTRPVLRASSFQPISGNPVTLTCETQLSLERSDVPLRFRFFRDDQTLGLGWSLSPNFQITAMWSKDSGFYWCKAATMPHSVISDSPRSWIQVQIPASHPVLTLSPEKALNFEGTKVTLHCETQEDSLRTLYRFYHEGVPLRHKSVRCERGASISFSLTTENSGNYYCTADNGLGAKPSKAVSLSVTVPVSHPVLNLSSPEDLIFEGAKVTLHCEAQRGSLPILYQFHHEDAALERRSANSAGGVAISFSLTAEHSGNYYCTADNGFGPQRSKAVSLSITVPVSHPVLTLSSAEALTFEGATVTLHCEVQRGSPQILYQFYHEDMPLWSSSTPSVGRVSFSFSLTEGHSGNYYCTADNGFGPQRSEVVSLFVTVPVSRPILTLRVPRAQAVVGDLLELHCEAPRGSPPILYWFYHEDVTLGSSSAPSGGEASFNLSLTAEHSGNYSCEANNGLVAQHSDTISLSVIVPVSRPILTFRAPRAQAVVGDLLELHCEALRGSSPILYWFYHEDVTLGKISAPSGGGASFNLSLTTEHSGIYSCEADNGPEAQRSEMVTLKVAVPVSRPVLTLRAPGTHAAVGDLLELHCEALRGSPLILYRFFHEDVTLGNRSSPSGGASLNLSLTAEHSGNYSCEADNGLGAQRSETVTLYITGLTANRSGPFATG
Experiment: SPR (Biacore 2000), IgG captured on anti-murine IgG chip, serial dilutions of FcRH injected, 25 C, 1:1 Langmuir fit

Kd: 19 nM
B1: murine anti-FcRH5-13G9 monoclonal antibody (antibody, from another filing, V domains shown)
VH: EVQLVQSGPELKKPGETVKISCKASGYTFTNYGMNWVKQAPGKGLKWMGWVNTYTGEPTYTDDFKGRFAFSVETSASTVFLQINNLKNEDTATYFCARRSIPYYYAMDYWGQGTSLT
VL: DIVMTQSQKIMSTSVGDRVNVTCKASQNVGSNVAWYHQKPGQSPKALIYSASYRYSGVPDRFTGSGSGTDFTLTISNVQSEDLAEYFCQQYKTWTFGGGTKLEIKR
